Results taken from patent publication US20180282719A1 (published 2018).
Residue numbers refer to the chain shown, from its start.

T1: recombinant soluble human IL-6 receptor (SR344) (human, UniProt P08887 20-344, biotinylated (sites not given) where immobilized via streptavidin or used in phage ELISA)
T1 construct: also called soluble IL-6 receptor; membrane-type IL-6 receptor (when biotinylated and immobilized on the chip)
T1 sequence (looked up): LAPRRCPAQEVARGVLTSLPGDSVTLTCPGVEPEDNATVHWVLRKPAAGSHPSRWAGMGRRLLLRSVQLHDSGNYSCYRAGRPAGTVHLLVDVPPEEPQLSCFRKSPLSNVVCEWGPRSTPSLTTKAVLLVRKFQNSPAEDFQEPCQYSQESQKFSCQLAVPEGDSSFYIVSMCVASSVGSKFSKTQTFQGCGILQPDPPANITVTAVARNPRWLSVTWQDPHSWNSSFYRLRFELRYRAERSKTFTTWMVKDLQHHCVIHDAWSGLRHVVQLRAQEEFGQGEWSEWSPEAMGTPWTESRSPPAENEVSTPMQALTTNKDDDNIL

B1: H54/L28-IgG1 (antibody, V domains shown)
VH: QVQLQESGPGLVKPSETLSLTCAVSGYSISDDQAWSWVRQPPGEGLEWIGYISYSGITNYNPSLKGRVTISRDTSKNQFSLKLSSVTAADTAAYYCARSLARTTAMDYWGEGTLVTVSS
VL: DIQMTQSPSSLSASVGDSVTITCQASQDISSYLNWYQQKPGKAPELLIYYGSELHSGVPSRFSGSGSGTDFTFTISSLEAEDAATYYCQQGNSLPYTFGQGTKVEIE
notes: IgG1
B2: Fv3-M73 (antibody)
heavy: QVQLQESGPGLVKPSETLSLTCAVSGHSISHDHAWSWVRQPPGEGLEWIGFISYSGITNYNPTLQGRVTISRDNSKNTLYLQMNSLRAEDTAVYYCARSLARTTAMDYWGEGTLVTVSSASTKGPSVFPLAPSSKSTSGGTAALGCLVKDYFPEPVTVSWNSGALTSGVHTFPAVLQSSGLYSLSSVVTVPSSNFGTQTYTCNVDHKPSNTKVDKTVERKSCVECPPCPAPPVAGPSVFLFPPKPKDTLMISRTPEVTCVVVDVSQEDPEVQFNWYVDGVEVHNAKTKPREEQFNSTFRVVSVLTVVHQDWLNGKEYKCKVSNKGLPAPIEKTISKTKGQPREPQVYTLPPSQEEMTKNQVSLTCLVKGFYPSDIAVEWESNGQPENNYKTTPPMLDSDGSFFLYSKLTVDKSRWQEGNVFSCSVMHEALHAHYTQKSLSLSP
light: DIQMTQSPSSLSASVGDSVTITCQASRDISSHLNWYQQKPGKAPELLIYYGSHLLSGVPSRFSGSGSGTDFTFTISSLEAEDAATYYCGQGNRLPYTFGQGTKVEIERTVAAPSVFIFPPSDEQLKSGTASVVCLLNNFYPREAKVQWKVDNALQSGNSQESVTEQDSKDSTYSLSSTLTLSKADYEKHKVYACEVTHQGLSSPVTKSFNRGEC
B3: Fv3-M71 (antibody, human IgG2, kappa)
heavy: QVQLQESGPGLVKPSETLSLTCAVSGHSISHDHAWSWVRQPPGEGLEWIGFISYSGITNYNPTLQGRVTISRDNSKNTLYLQMNSLRAEDTAVYYCARSLARTTAMDYWGEGTLVTVSSASTKGPSVFPLAPCSRSTSESTAALGCLVKDYFPEPVTVSWNSGALTSGVHTFPAVLQSSGLYSLSSVVTVPSSNFGTQTYTCNVDHKPSNTKVDKTVERKCCVECPPCPAPPVAGPSVFLFPPKPKDTLMISRTPEVTCVVVDVSHEDPEVQFNWYVDGVEVHNAKTKPREEQFNSTFRVVSVLTVVHQDWLNGKEYKCKVSNKGLPAPIEKTISKTKGQPREPQVYTLPPSREEMTKNQVSLTCLVKGFYPSDIAVEWESNGQPENNYKTTPPMLDSDGSFFLYSKLTVDKSRWQQGNVFSCSVMHEALHAHYTQKSLSLSPGK
light: B2 light
B4: Fv1-M71 (antibody, human IgG2, kappa)
heavy: QVQLQESGPGLVKPSETLSLTCAVSGYSISHDHAWSWVRQPPGEGLEWIGHISYSGITNYNPHLQDRVTISRDTSKNQFSLKLSSVTAADTAVYYCARFLARITAHDHWGEGTLVTVSSASTKGPSVFPLAPCSRSTSESTAALGCLVKDYFPEPVTVSWNSGALTSGVHTFPAVLQSSGLYSLSSVVTVPSSNFGTQTYTCNVDHKPSNTKVDKTVERKCCVECPPCPAPPVAGPSVFLFPPKPKDTLMISRTPEVTCVVVDVSHEDPEVQFNWYVDGVEVHNAKTKPREEQFNSTFRVVSVLTVVHQDWLNGKEYKCKVSNKGLPAPIEKTISKTKGQPREPQVYTLPPSREEMTKNQVSLTCLVKGFYPSDIAVEWESNGQPENNYKTTPPMLDSDGSFFLYSKLTVDKSRWQQGNVFSCSVMHEALHAHYTQKSLSLSPGK
light: B2 light with L55E
B5: Fv1-M73 (antibody)
heavy: QVQLQESGPGLVKPSETLSLTCAVSGYSISHDHAWSWVRQPPGEGLEWIGHISYSGITNYNPHLQDRVTISRDTSKNQFSLKLSSVTAADTAVYYCARFLARITAHDHWGEGTLVTVSSASTKGPSVFPLAPSSKSTSGGTAALGCLVKDYFPEPVTVSWNSGALTSGVHTFPAVLQSSGLYSLSSVVTVPSSNFGTQTYTCNVDHKPSNTKVDKTVERKSCVECPPCPAPPVAGPSVFLFPPKPKDTLMISRTPEVTCVVVDVSQEDPEVQFNWYVDGVEVHNAKTKPREEQFNSTFRVVSVLTVVHQDWLNGKEYKCKVSNKGLPAPIEKTISKTKGQPREPQVYTLPPSQEEMTKNQVSLTCLVKGFYPSDIAVEWESNGQPENNYKTTPPMLDSDGSFFLYSKLTVDKSRWQEGNVFSCSVMHEALHAHYTQKSLSLSP
light: B2 light with L55E

Assays:
[1] = molecular target: T1, recombinant soluble human IL-6 receptor …; assay: SPR Biacore T100, antibody on protein A/G chip, SR344 analyte, pH 7.4, 37 C
Procedure: (§1) Kinetic analysis of antigen-antibody reactions at pH 7.4 and pH 5.8 was carried out using a Biacore T100™ surface plasmon resonance system (GE Healthcare) for the four types of antibodies prepared: WT-IgG1, H54/L28-IgG1, H170/L82-IgG1, and Fv4-IgG1 (buffer: 10 mM MES (pH 7.4 or pH 5.8), 150 mM NaCl, 0.05% Surfactant P20 (polyoxyethelene sorbitan monolaurate)). The antibodies were bound to a sensor chip on which recomb-protein A/G (Pierce) was immobilized by amine coupling, and SR344 adjusted to an appropriate concentration was injected therein as an analyte. The association with and dissociation from SR344 of each type of antibody were observed on a real-time basis. All the measurements were carried out at 37° C. Association rate constants kₐ (1/Ms) and dissociation rate constants kd (1/s) were calculated using Biacore T100™ Evaluation Software (GE Healthcare), and dissociation constants KD (M) were calculated based on those values (Table 17).

[2] = molecular target: T1, recombinant soluble human IL-6 receptor …; assay: SPR Biacore T100, antibody on protein A/G chip, SR344 analyte, pH 5.8, 37 C
Procedure: as §1

[3] = molecular target: T1, recombinant soluble human IL-6 receptor …; assay: SPR Biacore T100, antibody on protein A/G chip, SR344 analyte, 37 C, ratio of pH 5.8 to pH 7.4
Procedure: as §1

[4] = molecular target: T1, recombinant soluble human IL-6 receptor …; assay: SPR Biacore T100, biotinylated SR344 on streptavidin chip (model of membrane-type IL-6 receptor), antibody as analyte, 37 C
Procedure: (§2) Binding to the membrane-type IL-6 receptor was evaluated by evaluating binding to the IL-6 receptor immobilized on a sensor chip. SR344 was biotinylated in accordance with a method known among persons with ordinary skill in the art, and the biotinylated SR344 was immobilized on the sensor chip via streptavidin using the affinity between streptavidin and biotin. All the measurements were carried out at 37° C. The mobile phase buffer was 10 mM MES (pH 5.8), 150 mM NaCl and 0.05% TWEEN® 20 (polyoxyethelene sorbitan monolaurate).
(§3) The pH-dependently-binding clones were injected under the condition of pH 7.4 to allow them to bind to SR344, and then, the pH-dependent dissociation of each clone at the pH of the mobile phase, pH 5.8, was observed. The results are shown in FIG. 21 (results for Fv1-M71, Fv1-M73, Fv3-M71, and Fv3-M73 are shown in FIG. 21, while results for other clones are shown in FIGS. 17 and 19). Analyses were carried out in the same manner as in Example 10 and the pH dependencies of the dissociation rate constants of all of the eleven types of clones are shown in Table 12.

[5] = molecular target: T1, recombinant soluble human IL-6 receptor …; assay: SPR Biacore T100, antibody captured by anti-IgG gamma chain F(ab)2, SR344 analyte, pH 7.4, 37 C
Procedure: Kinetic analyses of antigen-antibody reactions at pH 7.4 were carried out on the four types of antibodies, i.e., the humanized PM1 antibody (wild type: WT), and […], H3pI/L73-IgG1, Fv2-IgG1, and Fv4-IgG1 constructed in Examples 2 and 10, by using a Biacore T100™ surface plasmon resonance system (GE Healthcare) (buffer: 10 mM MES (pH 7.4), 150 mM NaCl, 0.05% TWEEN® 20 (polyoxyethelene sorbitan monolaurate)). Each antibody was bound on a sensor chip on which an anti-IgG γ chain specific F(ab)₂ (Pierce) was immobilized by amine coupling, and then, SR344 adjusted to a concentration of 9.8 to 40 nM was injected thereto as an analyte. The association to and dissociation from SR344 were observed on a real-time basis for the pH-dependent-binding clones. All the measurements were carried out at 37° C. Association rate constants kₐ (1/Ms) and dissociation rate constants kd (1/s) were calculated using Biacore T100™ Evaluation Software (GE Healthcare), and dissociation constants KD (M) were calculated on the basis of those values (Table 7).
The association to and dissociation from SR344 were observed on a real-time basis using the same method as Example 10 for the eleven types of antibodies, humanized PM1 antibody (wild type: WT) and H3pI/L73-IgG1, Fv1-M71, Fv1-M73, Fv2-IgG1, Fv3-M71, Fv3-M73, Fv4-IgG1, Fv4-IgG2, Fv4-M58, and Fv4-M73, constructed as described above. The association rate constants kₐ (1/Ms) and dissociation rate constants kd. (1/s) were calculated by analysis in the same manner, and the dissociation constants KD (M) were calculated on the basis of those values (Table 11).

[6] = molecular target: T1, recombinant soluble human IL-6 receptor …; assay: SPR Biacore T100, biotinylated SR344 on streptavidin chip (model of membrane-type IL-6 receptor), antibody as analyte, bound at pH 7.4, dissociation at pH 5.8, 37 C
Procedure: as §2, §3

[7] = molecular target: T1, recombinant soluble human IL-6 receptor …; assay: SPR Biacore T100, biotinylated SR344 on streptavidin chip (model of membrane-type IL-6 receptor), antibody as analyte, bound at pH 7.4, dissociation at pH 7.4, 37 C
Procedure: as §2, §3

| Binder | Kd [1] | koff [1] | kon [1] | Kd [2] | koff [2] | kon [2] | KD (pH 5.8)/KD (pH 7.4) [3] | kd (pH 5.8)/kd (pH 7.4) [3] | kd (pH 5.8)/kd (pH 7.4) [4] | Kd [5] | koff [5] | kon [5] | koff [6] | koff [7] |
| --- | --- | --- | --- | --- | --- | --- | --- | --- | --- | --- | --- | --- | --- | --- |
| B1 | 1.7 nM | 0.0014 s⁻¹ | 830000 M⁻¹ s⁻¹ | 1.1 nM | 0.0027 s⁻¹ | 2.4e+06 M⁻¹ s⁻¹ | 0.7 | 2 | – | – | – | – | – | – |
| B2 | – | – | – | – | – | – | – | – | 10.9 | 1 nM | 0.00087 s⁻¹ | 850000 M⁻¹ s⁻¹ | 0.0053 s⁻¹ | 0.00049 s⁻¹ |
| B3 | – | – | – | – | – | – | – | – | 10.7 | 1.1 nM | 0.00082 s⁻¹ | 780000 M⁻¹ s⁻¹ | 0.0097 s⁻¹ | 0.00091 s⁻¹ |
| B4 | – | – | – | – | – | – | – | – | 11.3 | 0.97 nM | 0.00054 s⁻¹ | 550000 M⁻¹ s⁻¹ | 0.0069 s⁻¹ | 0.00061 s⁻¹ |
| B5 | – | – | – | – | – | – | – | – | 8.8 | 0.91 nM | 0.00055 s⁻¹ | 610000 M⁻¹ s⁻¹ | 0.0032 s⁻¹ | 0.00037 s⁻¹ |
